Patent US20100047264A1 (published 2010)
Where no end group is shown, it is not given here.

What was measured:
[1] = molecular target: T1, free (non-NLP) HCV core protein (1-170) (hepatitis C virus (plasmid pCV-H77c), UniProt P27958 1-170); assay: phage display panning (Ph.D.-7 library) on HCV-C170 adsorbed to a plate, 4 rounds, elution with target protein
T1 construct: range 1-170; also called HCV-C170; free HCV-C170; not shown: His6-tag fused at the C-terminus
T1 sequence: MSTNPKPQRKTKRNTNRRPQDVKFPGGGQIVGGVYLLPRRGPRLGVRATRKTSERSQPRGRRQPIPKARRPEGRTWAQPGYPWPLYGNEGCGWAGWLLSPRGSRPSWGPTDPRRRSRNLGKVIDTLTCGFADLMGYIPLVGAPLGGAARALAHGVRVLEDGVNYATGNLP

[2] = molecular target: T2, OmpF porin purified from Salmonella typhi (Salmonella typhi, UniProt Q56113 23-363); assay: phage display panning (Ph.D-7 library) on purified OmpF coated on an ELISA plate, 3 rounds
T2 construct: also called S. typhi OmpF; OmpF antigen
T2 sequence: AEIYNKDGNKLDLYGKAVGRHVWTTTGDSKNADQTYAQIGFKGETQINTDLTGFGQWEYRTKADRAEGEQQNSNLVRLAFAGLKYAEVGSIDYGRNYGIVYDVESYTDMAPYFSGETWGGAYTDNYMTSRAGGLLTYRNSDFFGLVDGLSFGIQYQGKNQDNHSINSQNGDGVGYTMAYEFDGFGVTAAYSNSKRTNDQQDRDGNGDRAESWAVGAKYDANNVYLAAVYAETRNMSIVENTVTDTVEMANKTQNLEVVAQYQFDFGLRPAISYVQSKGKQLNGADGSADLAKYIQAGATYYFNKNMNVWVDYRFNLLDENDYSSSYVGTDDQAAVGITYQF

[3] = molecular target: T3, HCV core protein (1-170) NLPs (hepatitis C virus (plasmid pCV-H77c), UniProt P27958 1-170); assay: ELISA-type binding assay, HCV-C170 NLP coated at 1 µg/ml, 2-fold serial dilution of PapMVCP-STASYTR, detected with rabbit anti-PapMV CP polyclonal
T3 construct: range 1-170; also called HCV-C170 NLP; not shown: His6-tag fused at the C-terminus
T3 sequence: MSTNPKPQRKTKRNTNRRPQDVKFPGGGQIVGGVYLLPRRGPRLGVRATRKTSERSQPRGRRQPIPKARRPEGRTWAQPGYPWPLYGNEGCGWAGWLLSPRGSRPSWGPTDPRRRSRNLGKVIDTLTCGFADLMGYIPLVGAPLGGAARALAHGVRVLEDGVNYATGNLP

[4] = molecular target: T1, free (non-NLP) HCV core protein (1-170); assay: ELISA-type binding assay, free (non-NLP) HCV-C170 coated at 1 µg/ml, 2-fold serial dilution of PapMVCP-STASYTR, detected with rabbit anti-PapMV CP polyclonal

Row | Binder | binding result [1] | other results
1 | STASYTR (not fully specified) [HCV core affinity peptide STASYTR] | binds | 
2 | FHENWPS (not fully specified) [OmpF affinity peptide FHENWPS] |  | binding result [2]: binds
3 | NASSLRS (not fully specified) [HCV core affinity peptide NASSLRS] | binds | 
4 | FHEFWPT (not fully specified) [OmpF affinity peptide FHEFWPT] |  | binding result [2]: binds
5 | NTPQGMT (not fully specified) [HCV core affinity peptide NTPQGMT] | binds | 
6 | PapMVCP-STASYTR (VLPs of PapMV coat protein fused to the HCV core affinity peptide STASYTR and a histidine tag) (designed binder, also called PapSTA; PapMV-STASYTR) MASTPNIAFPAITQEQMSSIKVDPTSNLLPSQEQLKSVSTLMVAAKVPAASVTTVALELVNFCYDNGSSAYTTVTGPSSIPEISLAQLASIVKASGTSLRKFCRYFAPIIWNLRTDKMAPANWEASGYKPSAKFAAFDFFDGVENPAAMQPPSGLTRSPTQEERIANATNKQVHLFQAAAQDNNFASNSAFITKGQISGSTPTIQFLPPPETSSTASYTRTRHHHHHH |  | binding result [3]: binds; binding result [4]: binds
7 | GVQIMGR (not fully specified) [HCV core affinity peptide GVQIMGR] | binds | 
8 | SIQYTGV (not fully specified) [HCV core affinity peptide SIQYTGV] | binds | 
9 | GPSTPIR (not fully specified) [HCV core affinity peptide GPSTPIR] | binds | 
10 | HSPKNLH (not fully specified) [HCV core affinity peptide HSPKNLH] | binds | 
